From patent publication US20220340657A1

What was measured:
[1] = target: cyno-LAG3-hFc (cynomolgus monkey); assay: ELISA
[2] = target: cyno-LAG3-hFc (cynomolgus monkey); assay: Biacore

EC50 [1]: 35.3 nM
Kd [2]: 836 nM
Substance: positive control antibody Ref (BMS-986016)
